Target: T1, MASP-2 CCP1-CCP2-SP fragment (human, UniProt O00187 291-444; O00187 445-686)
T1 construct: range 291-444;range 445-686; also called MASP-2γB; MASP-2 catalytic fragment
Test: SDS-stable complex formation of 125I-labelled MASP fragment with C1-inhibitor; irreversible inhibition preceded by reversible complex formation, non-linear regression
Procedure: To assess the rate of SDS stable complex formation between the MASP-1 and MASP-2 CCP1-CCP2-SP fragments and C1-inhibitor, the ¹²⁵I-labelled MASP fragments at concentrations ranging between 30-100 nM were incubated with 100-350 nM C1-inhibitor at 37° C. in 20 mM HEPES, 140 mM NaCl, pH 7.4 for 40 minutes. Typically 11-13 samples were taken at varying time periods. […] The samples were further incubated at 37° C. for 30 minutes and run on reducing SDS-PAGE. Cleavages rates were visualized by means of autoradiography and the diminution of the reacted MASP chain was quantified using a GEL DOC 1000 instrument and Molecular Analyst Software for densitometric calculations (Bio-Rad, Hercules, Calif., USA). The kinetic constants were calculated assuming irreversible inhibition proceeded by reversible enzyme-inhibitor complex formation. Using steady-state approximation and neglecting the starting enzyme concentration compared to the starting inhibitor concentration ([I₀]>>[E₀]) the data was regressed on the following equation using non-linear regression methods: [E]=[E₀]exp(−kobst); kobs=k₂[I₀]/(Kᵢ+[I₀]), where kobs is the observed pseudo-first order rate of reaction, k₂ is the rate of irreversible enzyme-inhibitor complex formation and Kᵢ is the inhibitory constant.

T1 sequence (O00187 291-444 limits assumed, form in doubt, chain 1 of 2): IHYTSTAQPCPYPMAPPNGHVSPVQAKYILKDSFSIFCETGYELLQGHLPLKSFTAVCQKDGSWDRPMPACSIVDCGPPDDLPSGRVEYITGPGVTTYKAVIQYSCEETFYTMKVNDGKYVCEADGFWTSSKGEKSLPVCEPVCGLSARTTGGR
T1 sequence (O00187 445-686 limits assumed, form in doubt, chain 2 of 2): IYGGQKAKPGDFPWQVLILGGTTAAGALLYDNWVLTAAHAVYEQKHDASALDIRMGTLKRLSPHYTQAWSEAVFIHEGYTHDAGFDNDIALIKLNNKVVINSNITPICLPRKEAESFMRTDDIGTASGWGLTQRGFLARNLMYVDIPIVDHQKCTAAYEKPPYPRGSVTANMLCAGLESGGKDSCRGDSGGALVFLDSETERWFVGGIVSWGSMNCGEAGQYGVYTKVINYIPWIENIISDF

B1: C1-inhibitor (other, human, UniProt P05155 23-500, looked up)
chain: NPNATSSSSQDPESLQDRGEGKVATTVISKMLFVEPILEVSSLPTTNSTTNSATKITANTTDEPTTQPTTEPTTQPTIQPTQPTTQLPTDSPTQPTTGSFCPGPVTLCSDLESHSTEAVLGDALVDFSLKLYHAFSAMKKVETNMAFSPFSIASLLTQVLLGAGENTKTNLESILSYPKDFTCVHQALKGFTTKGVTSVSQIFHSPDLAIRDTFVNASRTLYSSSPRVLSNNSDANLELINTWVAKNTNNKISRLLDSLPSDTRLVLLNAIYLSAKWKTTFDPKKTRMEPFHFKNSVIKVPMMNSKKYPVAHFIDQTLKAKVGQLQLSHNLSLVILVPQNLKHRLEDMEQALSPSVFKAIMEKLEMSKFQPTLLTLPRIKVTTSQDMLSIMEKLEFFDFSYDLNLCGLTEDPDLQVSAMQHQTVLELTETGVEAAAASAISVARTLLVFEVQQPFLFVLWDQQHKFPVFMGRVYDPRA
notes: mature; Serum-purified, glycosylated; molecular weight of 71.1 kDa used
**Q.** B1 was tested. Which Ki did it give?
**A.** 8.8 nM

Reference: patent publication US20090042248A1 (TARGETEX KFT, published 2009)
